Assay results: IntAct's records for PubMed 22466964

B1: UBX domain-containing protein 7 (Homo sapiens), O94888 (parent)
chain: MAAHGGSAASSALKGLIQQFTTITGASESVGKHMLEACNNNLEMAVTMFLDGGGIAEEPSTSSASVSTVRPHTEEEVRAPIPQKQEILVEPEPLFGAPKRRRPARSIFDGFRDFQTETIRQEQELRNGGAIDKKLTTLADLFRPPIDLMHKGSFETAKECGQMQNKWLMINIQNVQDFACQCLNRDVWSNEAVKNIIREHFIFWQVYHDSEEGQRYIQFYKLGDFPYVSILDPRTGQKLVEWHQLDVSSFLDQVTGFLGEHGQLDGLSSSPPKKCARSESLIDASEDSQLEAAIRASLQETHFDSTQTKQDSRSDEESESELFSGSEEFISVCGSDEEEEVENLAKSRKSPHKDLGHRKEENRRPLTEPPVRTDPGTATNHQGLPAVDSEILEMPPEKADGVVEGIDVNGPKAQLMLRYPDGKREQITLPEQAKLLALVKHVQSKGYPNERFELLTNFPRRKLSHLDYDITLQEAGLCPQETVFVQERN
B2: UBX domain-containing protein 5 (Saccharomyces cerevisiae), Q06682 (parent)
chain: MSEGKVDEFMAITGADDAAIATQFIEMADGNLNTAISLFFENGGAALLSSNNTPTPSNSTPMAPTSVDSDADAQLAERLQREAYQQQQPDQDYVRPPDEARHEVLTETSGFPISYGGIGGRFEPLHRVNDMFDEGRPESIFNQRLDDTNTNTYINDNSSDSLDSEEENDDDEYEYVEEPVIELDEDGNIKEYTKLVRKPKTISKEQKLALLFRPPFSIMSKLDLDAAKQKARAKQKWIMINIQDSGIFQCQALNRDLWSSRPVKTIIKENFVFLQYQYESRNAQPYLQFYHLNNKDDLPHIAILDPITGERVKQWNRVVPIPEQFISEINEFLASFSLDPKVPNPTVNEPLPKVDPTTLTEEQQMELAIKESLNNNSSKSNQEEVPSTGEEQKRVQEPDPFSTIEARVHPEPPNKPGITTRIQIRTGDGSRLVRRFNALEDTVRTIYEVIKTEMDGFADSRFTLNDHQREDLIDKLNMTIADAGLKNSSLLLEKLDPEIE
partner: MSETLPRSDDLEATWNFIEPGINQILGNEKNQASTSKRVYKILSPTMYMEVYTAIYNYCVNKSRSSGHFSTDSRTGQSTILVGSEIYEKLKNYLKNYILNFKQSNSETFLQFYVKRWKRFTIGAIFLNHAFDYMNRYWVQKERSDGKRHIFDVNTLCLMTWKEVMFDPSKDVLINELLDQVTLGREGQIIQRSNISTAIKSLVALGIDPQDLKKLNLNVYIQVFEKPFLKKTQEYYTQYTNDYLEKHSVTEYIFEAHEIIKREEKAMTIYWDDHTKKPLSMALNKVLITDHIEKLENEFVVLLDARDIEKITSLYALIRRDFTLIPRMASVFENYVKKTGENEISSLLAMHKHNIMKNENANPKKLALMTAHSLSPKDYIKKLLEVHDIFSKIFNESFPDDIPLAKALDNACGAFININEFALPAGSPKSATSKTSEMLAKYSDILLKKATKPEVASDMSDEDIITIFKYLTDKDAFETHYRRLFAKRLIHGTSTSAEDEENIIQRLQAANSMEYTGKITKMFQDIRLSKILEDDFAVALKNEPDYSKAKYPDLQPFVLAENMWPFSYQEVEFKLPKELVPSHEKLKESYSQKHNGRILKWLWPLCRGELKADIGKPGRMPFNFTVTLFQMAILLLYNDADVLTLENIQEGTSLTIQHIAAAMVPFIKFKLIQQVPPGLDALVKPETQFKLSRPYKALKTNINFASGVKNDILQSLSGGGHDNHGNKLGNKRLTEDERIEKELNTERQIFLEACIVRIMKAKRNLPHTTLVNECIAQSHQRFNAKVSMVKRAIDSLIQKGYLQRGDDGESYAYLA
B3: Cullin-2 (Homo sapiens), Q13617 (parent)
chain: MSLKPRVVDFDETWNKLLTTIKAVVMLEYVERATWNDRFSDIYALCVAYPEPLGERLYTETKIFLENHVRHLHKRVLESEEQVLVMYHRYWEEYSKGADYMDCLYRYLNTQFIKKNKLTEADLQYGYGGVDMNEPLMEIGELALDMWRKLMVEPLQAILIRMLLREIKNDRGGEDPNQKVIHGVINSFVHVEQYKKKFPLKFYQEIFESPFLTETGEYYKQEASNLLQESNCSQYMEKVLGRLKDEEIRCRKYLHPSSYTKVIHECQQRMVADHLQFLHAECHNIIRQEKKNDMANMYVLLRAVSTGLPHMIQELQNHIHDEGLRATSNLTQENMPTLFVESVLEVHGKFVQLINTVLNGDQHFMSALDKALTSVVNYREPKSVCKAPELLAKYCDNLLKKSAKGMTENEVEDRLTSFITVFKYIDDKDVFQKFYARMLAKRLIHGLSMSMDSEEAMINKLKQACGYEFTSKLHRMYTDMSVSADLNNKFNNFIKNQDTVIDLGISFQIYVLQAGAWPLTQAPSSTFAIPQELEKSVQMFELFYSQHFSGRKLTWLHYLCTGEVKMNYLGKPYVAMVTTYQMAVLLAFNNSETVSYKELQDSTQMNEKELTKTIKSLLDVKMINHDSEKEDIDAESSFSLNMNFSSKRTKFKITTSMQKDTPQEMEQTRSAVDEDRKMYLQAAIVRIMKARKVLRHNALIQEVISQSRARFNPSISMIKKCIEVLIDKQYIERSQASADEYSYVA
partner: B1 chain

Variants of: B1
Settings: with cul2_human CUL2, Q13617

Row | effect of a mutation on the interaction | Variant
1 | disrupting interaction strength | A293Q
2 | disrupting interaction strength | E286R;L290E;A293Q

Variants of: B2
Settings: with cdc53_yeast CDC53, Q12018

Row | effect of a mutation on the interaction | Variant
3 | disrupting interaction strength | E361R;M365E;A368Q
4 | disrupting interaction strength | A368Q

Variants of: B3
Settings: with ubxn7_human UBXN7, O94888

Row | effect of a mutation on the interaction | Variant
5 | disrupting interaction strength | K689R
